The target in test [1] is HER2 on cancer cells (MCF7, SKBR3, BT474, SKOV3, OVCAR3) (human) (UniProt P04626). Kind of test: cell-based or functional assay.
Test [2] shares this target. Kind of test: flow cytometry on OVCAR3 cells; retelling of FIG. 16 with a different last digit (1436 there). (Flow cytometry measures light scatter and fluorescence of single cells or particles in a stream.)
The target is the same in test [3]. In words: flow cytometry, 100 nM memAb trastuzumab on MCF7 cells, secondary anti-kappa-647 (secondary alone: 338).
Test [4] shares this target. Kind of test: flow cytometry, 100 nM memAb trastuzumab on BT474 cells, secondary anti-kappa-647 (secondary alone: 392).
Test [5] has the same target. In words: flow cytometry, 100 nM memAb trastuzumab on SKBR3 cells, secondary anti-kappa-647 (secondary alone: 330).
Test [6] has the same target. Kind of test: flow cytometry, 100 nM memAb trastuzumab on SKOV3 cells, secondary anti-kappa-647 (secondary alone: 370).
The target is the same in test [7]. In words: flow cytometry, 100 nM memAb trastuzumab on OVCAR3 cells, secondary anti-kappa-647 (secondary alone: 307).

In test [1], “meditope-enabled I83E trastuzumab IgG (antibody)” returned an EC50 of Jurkat-NFAT-Luc meditope-CAR cell activation (luminescence), co-culture with BT474 of 0.26 nM; an EC50 of Jurkat-NFAT-Luc meditope-CAR cell activation (luminescence), co-culture with MCF7 of 0.42 nM; an EC50 of Jurkat-NFAT-Luc meditope-CAR cell activation (luminescence), co-culture with SKBR3 of 0.83 nM; an EC50 of Jurkat-NFAT-Luc meditope-CAR cell activation (luminescence), co-culture with SKOV3 of 0.35 nM. In addition, in test [1], the IC50 of cancer cell viability, BT474 co-incubated with memAb trastuzumab and FabRack T cells, 3 days was 0.33 nM; the IC50 of cancer cell viability, MCF7 co-incubated with memAb trastuzumab and FabRack T cells, 3 days was 0.069 nM; the IC50 of cancer cell viability, SKBR3 co-incubated with memAb trastuzumab and FabRack T cells, 3 days is 0.11 nM; the IC50 of cancer cell viability, SKOV3 co-incubated with memAb trastuzumab and FabRack T cells, 3 days stood at 0.046 nM. The substance also gave an MFI in test [2] of 1440. Further, the median fluorescence intensity (MFI) in test [3] came to 985. The substance further showed a median fluorescence intensity (MFI) in test [4] of 31700. Besides, the median fluorescence intensity (MFI) in test [5] turned out to be 34400. This substance also had a median fluorescence intensity (MFI) in test [6] of 43200. Also, the median fluorescence intensity (MFI) in test [7] amounted to 1440.

The record behind these values is patent US20210061879A1.
